This note sets out measurements from patent publication US20230250168A1 (MABWELL SHANGHAI BIOSCIENCE, published 2023).

Assay [1] deals with human CLDN18.2 expressed on cell surfaces (human) (UniProt P56856). As to the kind of experiment: cell-based or functional assay.
The target of assay [2] is human CLDN18.1 expressed on cell surfaces (human) (UniProt P56856). As to the kind of experiment: cell-based or functional assay.
In assay [3] the target is T1, antigen human CLDN18.2, His-tagged (human, UniProt P56856-2 1-261, limits assumed).
T1 construct: Recombinant antigen used in the Fortebio assay (His-tagged, captured on NTA probe); also called His-tagged antigen; not shown: His tag
As to the kind of experiment: BLI (Fortebio), His-tagged antigen on NTA probe; ratio to 16K15-xiIgG. Here is the method:
(§1) The binding kinetic parameters of the chimeric antibodies and the humanized antibodies thereof to the antigen human CLDN18.2 were analyzed by a Fortebio (BLITZ pro1.1.0.28) instrument. Before performing the assay, an NTA bioprobe was soaked in PBS for 10 min, and the probe was then placed in PBS containing 100 nM antigen for 300 s to capture the His-tagged antigen. The probe was further subjected to a binding reaction with 100 nM antibody for a binding time of 400 s, and the probe was then transferred to PBS and subjected to a dissociation reaction for 600 s. When the assay was finished, data from which the response value of a blank control had been deducted were fitted to a 1:1 Langmuir binding model using software, and then the kinetic constants for antigen-antibody binding were calculated.

Assay [4] concerns the target T1, antigen human CLDN18.2, His-tagged. As to the kind of experiment: BLI (Fortebio), His-tagged antigen on NTA probe, 100 nM antibody, 1:1 fit. Here is the method:
as §1
On the technique in general: In BLI a coated tip is dipped into the sample, and binding shifts an interference pattern.

For assay [5] the target is unchanged. The assay is described as follows: SPR (BIAcore), antibody captured by anti-human Fc, antigen as analyte. As for the experimental part:
Referring to the instructions provided in the Human Antibody Capture Kit (cat No. BR-1008-39, Lot 10261753) from GE Healthcare, the analytical channel and the control sample channel on a CM5 sensor chip were first saturated and coupled with the maximum amount of anti-human Fc antibody, then buffers containing anti-human CLDN18.2 chimeric antibodies, humanized antibodies or a control antibody IMAB362 at 7.5 μg/ml were allowed to flow through the analytical channel and uniformly distribute. Finally, antigen samples diluted in gradient (the initial concentration was 20 nM and diluted by 1:3 to get 8 concentrations, and the concentration 0.741 nM was set to be repeated) were allowed to flow through both the analytical channel and the sample channel, and the photoreactions upon the binding of antibody to antigen were measured. Subsequently, the association constant Kon and dissociation constant Koff and affinity constant KD of each antibody were finally obtained by instrument software fitting analysis.
Background: In SPR one partner is held on a chip, and binding of the other changes the refractive index at the surface.

Assay [6] has the same target. As to the kind of experiment: BLI (Fortebio), His-tagged antigen on NTA probe; ratio to 8K13-xiIgG. As for the experimental part:
as §1

Assay [7] has as its target T2, human CLDN18.2 expressed on cell surfaces (human, UniProt P56856-2 1-261). As to the kind of experiment: cell-based or functional assay.
Assay [8] concerns the target T2, human CLDN18.2 expressed on cell …. The assay is described as follows: cell-based or functional assay. The source holds these as a separate data set.

B1: 8K13 (8K13-hz24) scfv, as CAR on T cells (scFv, not shown: small tags and cut ends)
scFv: QVQLVQSGAEVKKPGSSVKVSCKASGYAFSNYWMNWVRQAPGQGLEWMGQIYPGSGDTKYSGKFQSRVTITADKSTNTAYMELSSLRSEDTAVYYCARFYYGNVMDYWGQGTLVTVSSGSTSGGGSGGGSGGGGSSDIVLTQSPDSLAVSLGERATINCKSSQTLLSGGNQKNYLTWYQQKPGQPPKLLIYWASTRESGVPDRFSGSGSGTDFTLTISSLQAEDLAVYYCQQGYSYPLTFGQGTKLEIK
In assay [1], B1 registered a Human IFNγ detected in the supernatants of the culture systems (CAR-T cells with CHO-claduin18.2) of 75500. In assay [2], this molecule showed a Human IFNγ detected in the supernatants of the culture systems (CAR-T cells with CHO-claduin18.1) of 4670.

B2: 16K15-hz11 (antibody, human IgG1, V domains shown)
VH: EVQLVESGGGLVQPGGSLRLSCAGSGITLSTYAMSWVRQAPGKGLEWVSSIISGGITYYLDSVKGRFTISRDNAKNSLYLQMNSLRAEDTAVYYCARKYHGNALDYWGQGTLVTVSS
VL: DIVMTQSPDSLAVSLGERATINCKSSQSLLNSGNQRNYLTWYQQKPGQPPKKLIYWASTRESGVPDRFSGSGSGTDFTLTISSLQAEDLAVYYCQNNYFYPLTFGQGTKLEIKR
notes: Only positions of reverse mutations are printed; copies: 2 + 2
Turning to B2, in assay [3], the “Koff/Koff(Xi-IgG)” value was determined as 0.65. In assay [4], this molecule came in with a Kd of 0.535 nM, a Response of 0.17, a koff of 0.0001 s⁻¹ and a kon of 188000 M⁻¹ s⁻¹.

B3: 16k15 (16K15-hz22) scfv, as CAR on T cells (scFv, not shown: small tags and cut ends)
scFv: EVQLVESGGGLVQPGGSLRLSCAGSGITLSTYAMSWVRQAPGKGLEWVSSIISGGITYYLDSVKGRFTISRDNAKNTLYLQMSSLRAEDTAVYYCARKYHGNALDYWGQGTLVTVSSGSTSGGGSGGGSGGGGSSDIVMTQSPDSLAVSLGERATINCKSSQSLLSSGNQRNYLTWYQQKPGQPPKKLIYWASTRESGVPDRFSGSGSGTDFTLTISSLQAEDLAVYYCQNNYFYPLTFGQGTKLEIK
The molecule B3 came in with a Human IFNγ detected in the supernatants of the culture systems (CAR-T cells with CHO-claduin18.2) in assay [1] of 79200. Besides, the Human IFNγ detected in the supernatants of the culture systems (CAR-T cells with CHO-claduin18.1) in assay [2] turned out to be 60300.

B4: 16K15-xiIgG (antibody, V domains shown)
VH: EVMLVESGGGLVRPGGSLKLSCAGSGITLSTYAMSWVRQTPERRLEWVASIISGGITYYLDSVKGRFTISRDNARNILYLQMSSLRSEDTAIYYCARKYHGNALDYWGQGTSVTVSL
VL: DIVMTQSPSSLPVTAGETVTMRCKSSQSLLNSGNQRNYLTWYQRKPGQPPKKLIYWASTRESGVPDRFTGSGSGTDFTLTISGVQAEDLAVYYCQNNYFYPLTFGAGTKLELKR
notes: Murine variable regions on human IgG1 / kappa constant regions; also called 16K15 chimeric antibody
In assay [5], B4 had a Kd of 13.5 nM, a koff of 0.00144 s⁻¹ and a kon of 107000 M⁻¹ s⁻¹. Also, the “Koff/Koff(Xi-IgG)” value in assay [3] worked out at 1. For the same molecule, in assay [4], the Kd was found to be 0.557 nM, the Response was found to be 0.261, the koff was found to be 0.000154 s⁻¹ and the kon was determined as 276000 M⁻¹ s⁻¹.

B5: 8K13-hz24 (antibody, human IgG1, V domains shown)
VH: QVQLVQSGAEVKKPGSSVKVSCKASGYAFSNYWMNWVRQAPGQGLEWMGQIYPGSGDTKYSGKFQSRVTITADKSTNTAYMELSSLRSEDTAVYYCARFYYGNVMDYWGQGTLVTVSS
VL: DIVLTQSPDSLAVSLGERATINCKSSQTLLSGGNQKNYLTWYQQKPGQPPKLLIYWASTRESGVPDRFSGSGSGTDFTLTISSLQAEDLAVYYCQQGYSYPLTFGQGTKLEIK
notes: Humanized; also called 8K13-hz24 IgG; 8K13-24 IgG
As for B5, the “Koff/Koff(Xi-IgG)” value in assay [6] is 3.5. Further, in assay [7], the “ADCC reporter EC50 (Jurkat NFAT-luciferase effector cells), BxPC3 target cells” value worked out at 0.304 nM; the “ADCC reporter EC50 (Jurkat NFAT-luciferase effector cells), CHOK1 target cells” value is 0.589 nM; the “ADCC reporter EC50 (Jurkat NFAT-luciferase effector cells), NCI-N87 target cells” value was found to be 0.15 nM. Further, in assay [8], the “CDC EC50, BxPC3 cells stably expressing human CLDN18.2 (CCK-8)” value amounted to 28.5 nM; the “CDC EC50, CHOK1 cells stably expressing human CLDN18.2 (CCK-8)” value came to 21.3 nM; the “CDC EC50, NCI-N87 cells stably expressing human CLDN18.2 (CCK-8)” value is 57.7 nM. In assay [5], this molecule yielded a Kd of 28.5 nM, an off-rate (koff) of 0.00202 s⁻¹ and a kon of 70900 M⁻¹ s⁻¹. In assay [4], this molecule came in with a Kd of 1.51 nM, a Response of 0.133, an off-rate constant (koff) of 0.000399 s⁻¹ and a kon of 264000 M⁻¹ s⁻¹.

B6: 16K15-hz00 (antibody, human IgG1, V domains shown)
VH: EVQLVESGGGLVQPGGSLRLSCAASGITLSTYAMSWVRQAPGKGLEWVSSIISGGITYYLDSVKGRFTISRDNAKNSLYLQMNSLRAEDTAVYYCARKYHGNALDYWGQGTLVTVSS
VL: DIVMTQSPDSLAVSLGERATINCKSSQSLLNSGNQRNYLTWYQQKPGQPPKLLIYWASTRESGVPDRFSGSGSGTDFTLTISSLQAEDVAVYYCQNNYFYPLTFGQGTKLEIK
notes: Humanized (direct CDR graft)
Regarding B6, the “Koff/Koff(Xi-IgG)” value in assay [3] stood at 0.14. In assay [4], this molecule yielded a Kd of 0.0895 nM, a Response of 0.176, a koff of 2.15e-05 s⁻¹ and a kon of 240000 M⁻¹ s⁻¹.

B7: 16K15-hz22 (antibody, human IgG1, V domains shown)
VH: EVQLVESGGGLVQPGGSLRLSCAGSGITLSTYAMSWVRQAPGKGLEWVSSIISGGITYYLDSVKGRFTISRDNAKNTLYLQMSSLRAEDTAVYYCARKYHGNALDYWGQGTLVTVSS
VL: DIVMTQSPDSLAVSLGERATINCKSSQSLLSSGNQRNYLTWYQQKPGQPPKKLIYWASTRESGVPDRFSGSGSGTDFTLTISSLQAEDLAVYYCQNNYFYPLTFGQGTKLEIK
notes: Humanized; also called 16K15-hz22 IgG; 16K15-22 IgG
On to B7, for which, in assay [7], the “ADCC reporter EC50 (Jurkat NFAT-luciferase effector cells), BxPC3 target cells” value was 0.176 nM; the “ADCC reporter EC50 (Jurkat NFAT-luciferase effector cells), CHOK1 target cells” value was determined as 0.712 nM; the “ADCC reporter EC50 (Jurkat NFAT-luciferase effector cells), NCI-N87 target cells” value turned out to be 0.0677 nM. Also, in assay [8], the “CDC EC50, BxPC3 cells stably expressing human CLDN18.2 (CCK-8)” value stood at 12.2 nM; the “CDC EC50, CHOK1 cells stably expressing human CLDN18.2 (CCK-8)” value stood at 5.2 nM; the “CDC EC50, NCI-N87 cells stably expressing human CLDN18.2 (CCK-8)” value is 17.4 nM. Moreover, in assay [5], the equilibrium dissociation constant (Kd) was 9.85 nM, the koff was 0.000563 s⁻¹ and the kon came to 57100 M⁻¹ s⁻¹. In assay [3], the “Koff/Koff(Xi-IgG)” value was 1.86. In assay [4], binding was put at a Kd of 1.1 nM, the Response turned out to be 0.266, the koff is 0.000286 s⁻¹ and the kon came out at 259000 M⁻¹ s⁻¹.

B8: 52E22 (52E22-hz12) scfv, as CAR on T cells (scFv, not shown: small tags and cut ends)
scFv: QIQLVQSGSELKKPGASVKVSCKASGYTLTNYGMNWVRQAPGQGLEWMGWIRPNTGEPTYAEDFKGRFVFSLDTSVATAYLQITSLKAEDTAVYYCARLYRGNTLDNWGQGTLVTVSSGSTSGGGSGGGSGGGGSSDIVMTQSPDSLAVSLGERATINCKSSQNLLSSGNQRNYLTWYQQKPGQPPKLLIYWASTRESGVPDRFSGSGSGTDFTLTISSLQAEDLAVYYCQQGYSFPFTFGQGTKLEIK
For B8, the Human IFNγ detected in the supernatants of the culture systems (CAR-T cells with CHO-claduin18.2) in assay [1] was 78900. Besides, in assay [2], the Human IFNγ detected in the supernatants of the culture systems (CAR-T cells with CHO-claduin18.1) is 4540.

B9: 8K13-xiIgG (antibody, V domains shown)
VH: QVHLQQSGAELVRPGSSVKISCKASGYAFSNYWMNWVRQRPGQGLEWIGQIYPGNGDTKYSGKFNSKDTLTADKSSNTAYMQLNSLTSEDSAVYFCARFYYGNVMDYWGQGTSVTVSS
VL: DIVLTQSPSSLTVTAGEKVTMSCKSSQTLLNGGNQKNYLTWYQQKSGQPPKLLIYWASTRESGVPDRFTGSGSGTDFTLTISSVQAEDLAVYYCQNGYSYPLTFGVGTKLELKR
notes: Murine variable regions on human IgG1 / kappa constant regions; also called 8K13 chimeric antibody
Turning to B9, the “Koff/Koff(Xi-IgG)” value in assay [6] is 1. Moreover, in assay [5], the Kd is 6.99 nM, the koff came to 0.000573 s⁻¹ and the kon was 81900 M⁻¹ s⁻¹. Besides, in assay [4], binding was characterised by a dissociation constant (Kd) of 0.382 nM, the Response is 0.134, the koff was 0.000114 s⁻¹ and the kon was found to be 298000 M⁻¹ s⁻¹.

A word on the Kd: it is the free concentration of one partner at which half of the binding sites on the other are occupied at equilibrium, for simple one-to-one binding. High values mean a looser complex, low ones a tighter complex. The term koff denotes the first-order rate constant of dissociation. Higher therefore signals fast dissociation. The term kon denotes the second-order rate constant of association. Low readings indicate slower complex formation, high ones faster complex formation.
